Experimental data published in a protein production outcome set (Wang et al. 2014).

Test: label from the status in PepcDB records

| Sequence | protein production |
| --- | --- |
| GNQSTSSKGSDTKKEQITVKHQLDKNGTKVPKNPKKVVVFDFGSLDTLDKLGLDDIVAGLPKQVLPKYLSKFKDDKYADVGSLKEPDFDKVAELDPDLIIISARQSESYKEFSKIAPTIYLGVDTAKYMESFKSDAETIGKIFDKEDKVKDELANIDHSIADVKKTAEKLNKNGLVIMANDGKISAFGPKSRYGLIHDVFGVAPADQNIKASTHGQSVSYEYISKTNPDYLFVIDRGTAIGETSSTKQVVENDYVKNVNAVKNGHVIYLDSATWYLSGGGLESMTQMIKEVKDGLEK | not failed |
| MAQKMTGALVFDERTDRYDIRFDLNSYYGGLHCGECFDVFVRGKWKPTRIEYGDNWYLVGIRAEDLNGLRVRI | failed |
| MQAILLNFCFDFMCNYVIMSNKHFYRLGGFIMSFKIITISREFGSGGRFIGEQIAQKCGIEFYDKKIIEHVAKELGISEQIVANQGEYAPAGNIFSYAFVGRDITGVSLSDQIFNIQQKLIKDIAQKEPCVIVGRCADYILSDRDDVLNVFIEGNKPEKAARIKKLYQKSDDEVKKLLKDVDKKRSVNYRYFTDKEWGNRKNYDLVLNSSVLGYDKCIELITAAYA | failed |
| MAVGFFAQVIDGALGMAYGITATTFLLSAGATPAAASASVHIAEVFTTGFSGISHVKLGNVNKSLFLRLLLPGMIGAVLGAVLITRFDGHQLKPFISAYLLLMGLYILSKAYRHVIKRRAPRHVAKLALFGGFVDAAGGGWGPVVTSSLIGSGSDPRTTIGSVNFAEFFLTIASATSFILLAGQPDTWKMVAGLVFGGLFAAPFAALLCKKLSPRTLLVIVGTLITLISAYNIYIGLR | failed |
| MEKYPEIQQMRSKMREGDDTNEFKIRPLKGLSHPSGNLQMQRFQEDRRERIHSIRKRENQDGRLDLIGVVGEITVVIDDVVYEEEKLRKVVFTMKG | not failed |
| MTDNTRLRIAMQKSGRLSDDSRELLARCGIKINLHTQRLIAMAENMPIDILRVRDDDIPGLVMDGVVDLGIIGENVLEEELLNRRAQGEDPRYFTLRRLDFGGCRLSLATPVDEAWDGPLSLNGKRIATSYPHLLKRYLDQKGISFKSCLLNGSVEVAPRAGLADAICDLVSTGATLEANGLREVEVIYRSKACLIQRDGEMEESKQQLIDKLLTRIQGVIQARESKYIMMHAPTERLDEVIALLPGAERPTILPLAGDQQRVAMHMVSSETLFWETMEKLKALGASSILVLPIEKMME | not failed |
| MGSSHHHHHHSSGRENLYFQGSQESIQNKISQCKFSVCPERLQCPLEAIQCPITLEQPEKGIFVKNSDGSDVCTLFDAAAFSRLVGEGLPHPLTREPITASIIVKHEECIYDDTRGNFIIKGN | not failed |
| MGSSHHHHHHSSGLVPRGSPQQLVERLQEEKRIEAQKRKERQEAHLYMQVQIVAEDQFCGHQGNDMYDEEKVKYTVFKVLKNSSLAEFVQSLSQTMGFPQDQIRLWPMQARSNGTKRPAMLDNEADGNKTMIELSDNENPWTIFLET | not failed |
| MKEEAVRVIEEVLKQGRTAMVEYEAKQVLKAYGLPVPEEKLAKTLDEALEYAKEIGYPVVLKLMSPQILHKSDAKVVMLNIKNEEELKKKWEEIHENAKKYRPDAEILGVLVAPMLKPGREVIIGVTEDPQFGHAIMFGLGGIFVEILKDVTFRLVPITEKDARKMIQEIKAYPILAGARGEEPADIDAIVDMLLKVSKLVDDLKDYIKEMDLNPVFVYNKGEGAVIVDSRIILKPKD | not failed |
| EIKIGITMSASGPGAALGQPQSKTVAALPKEIGGEKVTYFALDDESDPTKAAQNARKLLSEEKVDVLIGSSLTPVSLPLIDIAAEAKTPLMTMAAAAILVAPMDERRKWVYKVVPNDDIMAEAIGKYIAKTGAKKVGYIGFSDAYGEGYYKVLAAAAPKLGFELTTHEVYARSDASVTGQVLKIIATKPDAVFIASAGTPAVLPQKALRERGFKGAIYQTHGVATEEFIKLGGKDVEGAIFAGEAFSGAEDMPADSPFRKVKARFVDAYKAANGGAAPTIFGVHLWDSMTLVENAIPAALKAAKPGTPEFRAAIRDQIEKSKDLALNNGLSNMTPDNHNGYDERSAFLIEIRDGAFRLKQ | not failed |
| MGMLGLDLLKEVPGLLEEIKALPLRLDEERFRFWLQQDYPFVEALYRYQVGLLLEAPQAHRAPLVQALMATVEELDWLLLQGASPSAPVHPVRAGYIALLEEMGRLPYAYRVVFFYFLNGLFLEAWAHHVPEEGPWAELSQHWFAPEFQAVLYDLEVLARGLWEDLDPEVVRTYLRRILEAEKATWSLLL | not failed |
| MTYRAEVDGLRAIAVTLVILFHSGVEQFAGGFIGVDVFFVISGYLITTIVINDLENQKFSLGDFYERRIRRILPLLLVVIAVSYLMSWWLFLPQAHKDVGQLAVSSILSSSNILLYLKGHNYFGLEDQANPLFHTWSLGVEEQYYIVIPLLLMLLARGKNAFYLTFFIAVFALSLMAIVYTSNDPDFAFYMIFSRAWELATGSLLALVMRKAQVQSNDTLATIGIVLILASALLFEKSQDGAGITLLVPVIGSALVILFASKDNVCGKLLSLKWVVFVGLISYSLYLWHIPLFVFYRYMLDATQDVNISLYIAALFVLSYFTWRFVEKPFRSRKAMSMRTVSAVVVLLTLPLLTFGVIGHQNGGFPERSAFFEAMRINNGYGLDCNGNTDVNDVCSSAPQPTIAVLGNSHSMVYVKRLSEVTPTGVVQLTQDSCAVGYVDILEAAGSISCRQFFKQAVDTILRTPSIRRVVISSNFNKELSQADYEASLTGLLNELEGKEVVVFGPTPSAPFAVGECLWKARLFGEQEESVCDFSPKRHHPQNVAKLVNYFDRFEHVEFVDLTDAICRNGVCRMKVGANNAMYTDDSHLSYKGAELVLGHYHNSTNETQQFTYDRQ | failed |
| MTPETNETLKLIGSDKVQGTAVYGPDGEKIGSIERVMIEKVSGRVSYAVLSFGGFLGIGDDHYPLPWPALKYNVELGGYQVMVTVDQLERAPKYGPGSEWDWRGARKVDDYYGVALT | not failed |
| NSESKSTPKRLHVSNIPFRFRDPDLRQMFGQFGKILDVEIIFNERGSKGFGFVTFENSADADRAREKLHGTVVEGRKIEVNNATARVMTN | not failed |
| MASLGFNLGFTFSNAQIQQHRKVSGGGRARVISCNSSSSSSSQASSPQGISAVTPLEIELEFFGPKPGSDGSYPVDKAKAVSGDKLLRSIMQDNKIELYAAYGKVMNCGGGGSCGTCIVEILDGRDLLNERTDTENRYLKKKPESWRLACQTIVGNKENSGKSALDIGCRAADSTVEEVN | failed |
| MKRVLVLGATGRTGNFVIKELSKYKSIQLIAGLRSQKDKERLPKINAAIETVVIDIADVCSLRKALTDSDIVVQAIRLRGDISENALIQLDQRIHQAFNPSRKTHLVTVGGAGALKLEANQRFWENEYFPRQTLPRGIAHARLRDYLEKSFFNHTWTYLIPPPVYVAEGARTGSYNRYSSAQKEDFFLSKSISYADFALAIGNAVMEEWQGVYLIAEKELEHHHHHH | failed |
| MKAVIVYASVHHGNTKKIAEAMASVISADVIDVTRKIKPDLSGYDVIGFASGVYFHTFHERIKKCIEENLFSKGQKVFLVATCGLGYRDYTKGIKDILAKKHVSFIGNFQCRGWDTYGIFGKIGGIAKKHPNDRDLKEAQQFVLKTVCEKTIDDVALLG | failed |
| MRLSFGITSKLFVALFALSMVVALAMGAAVRWRFDTNFLDYVNAREAERMAVFAQSIESVYAEHGNWGVLRNDRQAWYRLIRREIGRTHAGPFGGPRGDAEPVPPFAPPPGDVPPPGLPPPPPDAGDRPPQHPPGEGPGMHPPIWLLDAGRVPIVGDGPPPGPGSQWHALHHNGQTVGWLATPQRMHVPEGADQAFLAQQLRATWIIAALSVLLAAGVAILLARGVLAPMRRLAHATRRMAEGDYAARVDVHSGDEIGHLADDFNRLAETLEANQKMRRQLTADISHELRTPLAVLRGELEALEDGVRALTPASLTSLQAEVGTLSKLIDDLYELSLADVGALAFHMESIDLADTVCSAAQGFTPRLMDKRIALQLDLPTGPSRDAAIQGDPQRLRQLMQNLLENTLRYTDAGGTLRIHVHRAGAWWCLDVQDSAPGVPEAMLPRVFDRLFRADPSRGRAQGGAGLGLSLCQTIVQTHGGTIDARPSPLGGLWIAIRLPAANSSVADHDPDR | failed |
| MPPLCPLPTGGKRTNLHQYRHATRAMTDRLSPERRRYLMQQVRSKNTRPEKAVRSLLHSIGYRFRLHRKDLPGTPDIVFPSRRLVLFVHGCFWHGHGCRIGQLPKSRLDYWSPKIEANRARDQRKEAALAAEGWRVAVVWQCELSDLGALEARLRNILDPS | failed |
| MNSEVDTLFAQAYKLQYEGHLPQAISLYEQILAQSPKHTETLHFLGLTYAQLGDMENAILYFLQARKINPNDVGILNNLANAYKKAGQLDEAIKYYQQAIEIKPEYVQAHNNLAATYALLNNYQKALHHYVIAVNTEPDFSAAHFNLGLLLLKNQQLSAAKTQFNNVIALNPQHREAQFYLGILHLEDNLLSEAEQAFHKVLEQDHEHVQSLINLGVIALKREQNQLAVDYFTKALALDNEDIDARNNLAATFMHHDRFENALMHYDVLLKKEPDNLEYLYNSGVAQMALGHLNEATLLFDQILTLQSDHTPSLNNLAAIYLKMDMRETAREYLERALAINPDDVISRHMLNAITGATSVNTTEKYAQNLFNNYALYYDQHMQGELHYKIPHHIGRLIHQLQLLQTSHSLDLGCGTGLTGIVLREISKHLTGVDIAEKMIARAKEKNIYDLLVCSELIDFLRKDKNDYDLAVAADVLPYFGNLDDIFNSINQHLKQEGYFIFTTEISTTTPWKLESSARFSHQPEYIESLINKYQFHLIKQEKIPGRTQNKQVLEVMLYCIQKSTSCFVSN | failed |
| MALPHVVSSPSSTSLSPSFKSKPPFHSLRSLSPTVDNRRRCKLNSSFRCSSSSFSEKHHNAKSPKSDDIVELPLFPLPLVLFPGAILPLQIFEFRYRIMMHTLLQSDLRFGVVYSDSVSGSAAEVGCVGEVVKHERLVDDRFFLVCKGQERFRVTNVVRTKPYLVGEVTWLEDRPSGEENLDSLANEVEVLMKEVIRLSNRLNGKAEKEVQDLRRNQFPTPFSFFVGSTFEGAPREQQALLELEDTAARLKRERETLRNTLNYLTAASAVKDVFPSSS | failed |
| MASVSGNSTAPDSAAVVTVQDPLSDYVQGLFLDMKGDYWGAIDIFRKVLVRKPADPAVHYSISQSYYRLAVLDSARVYGEAAVRLDPSNRYYLRYLAVVAHDMRDYDRAAELYGQASLLEPDRTEIMYLQGLEYMAAKRLEPALEVFRKAVRIDPYNEAAFAQTLALEIALKHYPEAIDTSKQLLKLGGNERKIGITLAELYTKTGQETLAVQTLQELIAGDRSNITYWIALFDHYIMVGRNDDFHRELAVFLERASLPPESLHDLAKLYILRSGKDSLYVAPTIALLDELTARRPRDSELFMLKGMFGMMHGHQQEGVVLFRKAVQLDSSNATAWEYLISTQLDLGQKRQAFALLAKARRRLPGQRFRWSVLEGSLLLSSHKLRRAVAVLETVAGTKRKPGDPNLLIQANINLAMACDLLGMKKRSRSAYERVLDLDPHNTLAMNNLAYLFTEEGITLRKALRLATNAVMLEPENGVYLDTLGWVHYKLGNFELARQFLEKAAATGLDEPDIYRHLGEVYRKLGNEPKAREMLEKARTVEKTQGNKKSGH | failed |
| MLRPAGLWRLCRRPWAARVPAENLGRREVTSGVSPRGSTSPRTLNIFDRDLKRKQKNWAARQPEPTKFDYLKEEVGSRIADRVYDIPRNFPLALDLGCGRGYIAQYLNKETIGKFFQAAIAENALKNSSETEIPTVSVLADEEFLPFKENTFDLVVSSLSLHWVNDLPRALEQIHYILKPDGVFIGAMFGGDTLYELRCSLQLAETEREGGFSPHISPFTAVNDLGHLLGRAGFNTLTVDTDEIQVNYPGMFELMEDLQGMGESNCAWNRKALLHRDTMLAAAAVYREMYRNEDGSVPATYQIYYMIGWKYHESQARPAERGSATVSFGELGKINNLMPPGKKSQ | failed |
| PTPKTELVQKFRVQYLGMLPVDRPVGMDTLNSAIENLMTSSSKEDWPSVNMNVADATVTVISEKNEEEVLVECRVRFLSFMGVGKDVHTFAFIMDTGNQRFECHVFWCEPNAANVSEAVQAACSGPSSGIEGRGSSGSSGSSGSSGDAAVTPEERHLSKMQQNGYENPTYKFFEQMQN | not failed |
